Assay results from CN113563475A (INST MICROBIOLOGY CAS, dated 2021).

Legend:
带有组氨酸标签的S蛋白RBD = 带有组氨酸标签的S蛋白RBD (新型冠状病毒 (2019-nCoV / SARS-CoV-2), UniProt P0DTC2 319-541)
[1] = molecular target: 新冠病毒S抗原 (on VSV-SARS-CoV-2 pseudovirus, wild type) (新型冠状病毒 (2019-nCoV / SARS-CoV-2), UniProt P0DTC2 14-1273); assay: cell-based or functional assay

| Binder | Kd (带有组氨酸标签的S蛋白RBD) | 中和滴度(半数中和浓度，NC50), 2019-nCoV假病毒, Hela-hACE2, luciferase [1] |
| --- | --- | --- |
| 单抗B38 (antibody, V domains shown) VH: EVQLVESGGGLVQPGGSLRLSCAASGFIVSSNYMSWVRQAPGKGLEWVSVIYSGGSTYYADSVKGRFTISRHNSKNTLYLQMNSLRAEDTAVYYCAREAYGMDVWGQGTTVTVSS VL: DIVMTQSPSFLSASVGDRVTITCRASQGISSYLAWYQQKPGKAPKLLIYAASTLQSGVPSRFSGSGSGTEFTLTISSLQPEDFATYYCQQLNSYPPYTFGQGTKLEIK | 22.5 nM | 0.681 µg/mL |
| 双特异性抗体BS-mAb-1 (bispecific antibody) heavy: not shown light: DIQMTQSPLSLPVTPGEPASISCRSSQSLLDSDDGNTYLDWYLQKPGQSPQLLIYTLSYRASGVPDRFSGSGSGTDFTLKISRVEAEDVGVYYCMQRIEFPLTFGGGTKVEIKGGGGSGGGGSDIVMTQSPSFLSASVGDRVTITCRASQGISSYLAWYQQKPGKAPKLLIYAASTLQSGVPSRFSGSGSGTEFTLTISSLQPEDFATYYCQQLNSYPPYTFGQGTKLEIKRTVAAPSVFIFPPSDEQLKSGTASVVCLLNNFYPREAKVQWKVDNALQSGNSQESVTEQDSKDSTYSLSSTLTLSKADYEKHKVYACEVTHQGLSSPVTKSFNRGEC |  | 0.119 µg/mL |
| 双特异性抗体BS-mAb-2 (bispecific antibody) heavy: not shown light: DIVMTQSPSFLSASVGDRVTITCRASQGISSYLAWYQQKPGKAPKLLIYAASTLQSGVPSRFSGSGSGTEFTLTISSLQPEDFATYYCQQLNSYPPYTFGQGTKLEIKRTVAAPSVFIFPPSDEQLKSGTASVVCLLNNFYPREAKVQWKVDNALQSGNSQESVTEQDSKDSTYSLSSTLTLSKADYEKHKVYACEVTHQGLSSPVTKSFNRGECS |  | 0.048 µg/mL |
